The text below walks through data of paper PMC9107221 (Journal of Nanobiotechnology, 2022).

B11: Chikungunya/SL-CK1 E2 glycoprotein (natural protein)
chain: not shown
notes: E2 glycoprotein of Chikungunya virus strain SL-CK1, recombinant, about 40 kD on the blot; also called CHIKV E2; E2 protein; source: bought: Sino Biological

The target in assay [1] is B11.
For assay [2], the target named is T1, E2 glycoprotein of Chikungunya/human/China/GD134/2010, on virions and in infected Vero cells (Chikungunya virus …).
T1 construct: also called CHIKV virion; CHIKV virus
The assay is described as follows: […]; antibodies 10 ug/mL, […]. The settings on record: one partner purified.

A further assay has as its target T2, P10-LKIQVSLQIG (Chikungunya virus, SL-CK1).
T2 construct: 10-mer of the Chikungunya/SL-CK1 E2 glycoprotein, residues 46 to 55, domain A
T2 chain: LKIQVSLQIG
Nature of the assay: ELISA; peptide ELISA: each 10-mer peptide coated at 1 ug/mL in carbonate buffer pH 9.6, 2 ug/mL antibodies, HRP anti-6xHis. The settings on record: both partners purified. On the technique in general: In an ELISA, binding on a coated surface is turned into a signal by an enzyme label.

In assay [3] the target is B11. Nature of the assay: SPR; LSPR (OpenSPR, Nicoya): E2 protein immobilised on a COOH chip by EDC/NHS, antibodies flowed at 20 uL/min in PBS pH 7.4, 240 s binding, 360 s dissociation, One to One model. The settings on record: both partners purified. (In SPR one partner is held on a chip, and binding of the other changes the refractive index at the surface.)
Another assay deals with T3, P61-GEEPNYQEEW (Chikungunya virus, SL-CK1).
T3 construct: 10-mer of the Chikungunya/SL-CK1 E2 glycoprotein, domain C; printed as residues 331 to 340 in the results and as 301-310 in the discussion
T3 chain: GEEPNYQEEW
Nature of the assay: ELISA; peptide ELISA: each 10-mer peptide coated at 1 ug/mL in carbonate buffer pH 9.6, 2 ug/mL antibodies, HRP anti-6xHis. The conditions noted are these: both partners purified.

The next assay has as its target T4, BiNb-2E8 (alpaca).
T4 construct: VHH Nb-2E8, as the VHH of m1; flexible linker, printed as (GGGGS) x 3; VHH Nb-2E8, second copy, as the VHH of m1; Read here as two VHH in tandem on one chain; also called bivalent Nb-2E8; homo-dimer Nb-2E8 fused to Fc; source: HEK293 cells, pcDNA 3.4, purified (protein A)
The assay is described as follows: SPR; LSPR (OpenSPR, Nicoya): E2 protein immobilised on a COOH chip by EDC/NHS, antibodies flowed at 20 uL/min in PBS pH 7.4, 240 s binding, 360 s dissociation, One to One model. The settings on record: both partners purified.

The target in the next assay is T5, BiNb-3C5 (alpaca).
T5 construct: VHH Nb-3C5, as the VHH of m2; flexible linker, printed as (GGGGS) x 3; VHH Nb-3C5, second copy, as the VHH of m2; In the sandwich ELISA it was coupled with horseradish peroxidase (HRP Conjugation Kit); also called bivalent Nb-3C5; homo-dimer Nb-3C5 fused to Fc; source: HEK293 cells, pcDNA 3.4, purified (protein A)
The description is as above. The conditions noted are these: both partners purified.

For a further assay, the target named is T6, TriNb-2E8 (alpaca).
T6 construct: VHH Nb-2E8, as the VHH of m1; flexible linker, printed as (GGGGS) x 3; VHH Nb-2E8, second copy, as the VHH of m1; VHH Nb-2E8, third copy, as the VHH of m1; also called trivalent Nb-2E8; homo-trimer Nb-2E8 fused to Fc; source: HEK293 cells, pcDNA 3.4, purified (protein A)
The description is as above. The settings on record: both partners purified.

The target in the next assay is T7, TriNb-3C5 (alpaca).
T7 construct: VHH Nb-3C5, as the VHH of m2; flexible linker, printed as (GGGGS) x 3; VHH Nb-3C5, second copy, as the VHH of m2; VHH Nb-3C5, third copy, as the VHH of m2; also called trivalent Nb-3C5; homo-trimer Nb-3C5 fused to Fc; source: HEK293 cells, pcDNA 3.4, purified (protein A)
The description is as above. The settings on record: both partners purified.

B1: 1H7 (Nb-1H7) (VHH)
VHH: AVQLVESGGGLVQAGGSLRISCLASGPPFTDYTMGWFRQAPGKEREFVARITNHGGGTHYADSVKGRFTISRDYATNTVYLQMNSLKPEDTAVYYCAADRGAVYGTREDLYDYWGQGTQVTVSS
B1: the binding result in assay [1] is on record as “binds”.

B2: 4H6 (Nb-4H6) (VHH)
VHH: AVQLVESGGGLVQPGGSLGISCVASGPPFTDYTLGWFRQAPGKEREFVARITNHGGGTHYADSVKGRFTISREYATNTVYLQMNSLKPEDTAVYYCAADRGAVYGTREDLYDYWGQGTQVTVSS
As to B2, the binding result in assay [1] was “binds”.

B3: 1F1 (Nb-1F1) (VHH)
VHH: AVQLVESGGGLVQAGGSLRLSCAASGRSFSAYTMAWFRQAPGKEREWMASIVRSGGPTYYADSVKDRFTISRENARNTVYLQMNSLKPEDTAVYYCAADLGWTYSRSPELFGSWGQGTQVTVSS
Turning to B3, in [1], the binding result is reported as “binds”.

B4: 2B4 (Nb-2B4) (VHH)
VHH: AVQLVESGGGLVQAGGSLRLSCAASGRSSSAYTMAWFRQAPGKEREWMASIVRSGGPTYYADSVKDRFTISRENARNTVYLQMNSLKPEDTAVYYCAADLGWTYSRSPELFGSWGQGTQVTVSS
As for B4, the binding result in assay [1] is on record as “binds”.

B5: MoNb-3C5 (VHH)
VHH: AVQLVESGGGLVQAGGSLRLSCAASGRSFSAYTMAWFRQAPGKEREWMASIVRSGGPTYYADSVKDRFTISRENARNTAYLQMNSLKPEDTAVYYCAADLGWTYSRSPELFGSWGQGTQVTVSS
notes: About 28 kDa with the His-SUMO tag; detected through SUMO (anti-SMT3) or the His tag; also called monovalent VHH antibody Nb-3C5; SUMO-tagged VHH; not shown: His6, N-terminal, kept; SUMO, N-terminal, kept
The term Kd denotes a measure of binding affinity in units of concentration. High values mean lower affinity, low ones higher affinity. With B5, the binding result (in assay [2]; with P10-LKIQVSLQIG) was “binds” throughout. Further, in [3], the Kd was determined as 368 nM.

B6: MoNb-2E8 (VHH)
VHH: AVQLVESGGGLVQAGGSLRLSCAASGRSFSAYTMAWFRQAPGKEREWMASIVRSGGPTYYADSVKDRFTISRENARNTVYLQMNSLKPEDTAVYYCAADLGWTYSRSRELFGSWGQGTQVTVSS
notes: About 28 kDa with the His-SUMO tag; detected through SUMO (anti-SMT3) or the His tag; also called monovalent VHH antibody Nb-2E8; SUMO-tagged VHH; not shown: His6, N-terminal, kept; SUMO, N-terminal, kept
On to B6, for which the binding result (in [2]; in the assay with P61-GEEPNYQEEW) was “binds” each time. This molecule yielded a Kd in assay [3] of 101 nM.

B7: 1A12 (Nb-1A12) (VHH)
VHH: AVQLVESGGGLVQAGGSLRLSCAASGRALTSGTMGWFRQAPGKEREFVARANVKGDGTFYADAVKGRFTISRDYAKNTVYLQMNNLKPEDTAVYFCAADRGTVYGTSEDLYDYWGQGTQVTVSS
As to B7, the binding result in assay [1] is given as “binds”.

B8: 1E1 (Nb-1E1) (VHH)
VHH: AVQLVESGGGLVETGESLRLSCAASGRTIENYHVGWFRQTSGPEREFLAATSRGNGISTIADSVKGRFTISRDNAKNTVYLQMNALKPEDTAVYICAADDANFVNYRSYRAWDNWGQGTQVTVSS
B8: the binding result in [1] was “binds”.

B9: 2B5 (Nb-2B5) (VHH)
VHH: AVQLVESGGGLVQAGGSLRLSCAASGRTIENYHVGWFRQTSGPEREFLAATSRGNGISTIADSVKGRFTISRDNAKNTVYLQMNALKPEDTAVYICAADDANFVNYRSYRAWDNWGQGTQVTVSS
As for B9, in [1], the binding result was “binds”.

B10: 3E9 (Nb-3E9) (VHH)
VHH: AVQLVESGGGLVQAGGSLSLSCAASGRTFSAGTMGWFRQAPGKERELIARVIKNGGSTYYTDSVKGRFTIAADFAKSTVYLQMNSLKPEDTALYYCAADRGAVFGTRQELYDDWGQGTQVTVSS
Take B10: the binding result in assay [1] is “binds”. B11: the Kd with BiNb-2E8 was 2.59 nM; with BiNb-3C5, 20.7 nM; with TriNb-2E8 it was 4.52 nM; with TriNb-3C5, 10.4 nM.

B12: 4F8 (Nb-4F8) (VHH)
VHH: AVQLVESGGGTAQAGGPLRLSCKASGRSFSVGTMAWFRQVPGKEREFLVRDSQKGDGTVYAGSVEGRFTISRDYAKNTMDLQMNSLKPEDTAVYYCAADRGTVYGTREDLYDYWGQGTQVTVSS
As to B12, in assay [1], the binding result is given as “binds”.

B13: 1D1 (Nb-1D1) (VHH)
VHH: AVQLVESGGGLVQAGGSLRLSCEASGHTFSSGTMGWFRQAPGMEREFVARINEKGDGTFYADSVKGRFTISRDYAKNTVYLQMNTLKPEDTAVYYCVADRGTVYGTREDLYDYWGQGTQVTVSS
With B13, the binding result in assay [1] was “binds”.

B14: 4G10 (Nb-4G10) (VHH)
VHH: AVQLVESGGGLVQAGGSLRLSCEASGHTFNSGTMGWFRQAPGMEREFVARINEKGDGTFYADSVKGRFTISRDYTKNTVYLQMNTLKPEDTAVYYCVADRGTVYGTREDLYDYWGQGTQVTVSS
In the case of B14, the binding result in assay [1] is “binds”.

B15: 4C7 (Nb-4C7) (VHH)
VHH: AVQLVESGGGLVQAGGSLRLSCATSGRTLGTYGWFRQAPGKEREFVARFLRNNGLTEYADSVKGRFTISRDDAKNTVELQMIMLKPEDTAVYYCTADPDAVYSRSPALWVYWGQGTQVTVSS
For B15, the binding result in [1] is listed as “binds”.

B16: 2F7 (Nb-2F7) (VHH)
VHH: AVAGESGGGVVQAGGSLRLSCAASGRTFSPYAMGWFRQAPGKERESVAAISWSAGDTYYADSVKGRFTISRDNAKNTVYLQMNSLKPEDTAVYYCASRNTYFSDSGYSNFYAYDYWGQGTQVTVSS
With B16, the binding result in assay [1] is reported as “binds”.

B17: 1H3 (Nb-1H3) (VHH)
VHH: AVQLVESGGGLVQAGGSLRLSCAASVHTFTMPTMGWFRQAPGKGRELVARFNANINSTYYGDSVKGRFTISRDFAKNTVYLHMSSLRPEDTAVYYCVADRGVVFGTREDLYDYWGQGTQVTVSS
As to B17, in assay [1], the binding result is “binds”.

B18: 4C1 (Nb-4C1) (VHH)
VHH: AVQLVESGGGLVQAGGSLRLSCAASVHTFTMPTMGWFRQAPEKGRELVARFNANINSTYYGDSVKGRFTISRDFAKNTVYLHMSSLRPEDTAVYYCVADRGVFFGTREDLYDYWGQGTQVTVSS
In the case of B18, the binding result in [1] is “binds”.

B19: 2A3 (Nb-2A3) (VHH)
VHH: AVQLVESGGGLVPTGGSLRLSCTASGRTDNLYTVGWFRQAPGKERELIARITEKGGPTYYADSVKGRFSISTHKSKNAIYLQMNSVKPEDTAVYYCVADRGTVYGTREDLYDYWGQGTQVTVSS
Consider B19, for which, in [1], the binding result was “binds”.

B20: 1G6 (Nb-1G6) (VHH)
VHH: AVQLVESGGGLVQAGGSLRLSCAASGRTFSTYTMGWFRQAPGKEREFVARIIENTGNIYYADSVKGRFTISEDNAKNTLYLQMNNLKPEDTAVYYCVGDRGAVYGTRPDLYDHWGQGTQVTVSS
On to B20, for which the binding result in assay [1] is “binds”.

B21: 1C11 (Nb-1C11) (VHH)
VHH: AVQLVESGGGLVLAGASLRLSCADSGSGRSLGTYGWFRQAPGKEREFVARISQRGGIDYTDSVKGRFTISRDNSKNTVNLQMTTLTPEDTAVYYCAADPDTVYSRSPALWKYWGQGTQVTVSS
For the molecule B21, the binding result in assay [1] is recorded as “binds”.
